Source: article PMC6697728

Biological target: EphB2-GFP (UniProt P29323)
Sequence of UniProt P29323 (P29323 19-1055): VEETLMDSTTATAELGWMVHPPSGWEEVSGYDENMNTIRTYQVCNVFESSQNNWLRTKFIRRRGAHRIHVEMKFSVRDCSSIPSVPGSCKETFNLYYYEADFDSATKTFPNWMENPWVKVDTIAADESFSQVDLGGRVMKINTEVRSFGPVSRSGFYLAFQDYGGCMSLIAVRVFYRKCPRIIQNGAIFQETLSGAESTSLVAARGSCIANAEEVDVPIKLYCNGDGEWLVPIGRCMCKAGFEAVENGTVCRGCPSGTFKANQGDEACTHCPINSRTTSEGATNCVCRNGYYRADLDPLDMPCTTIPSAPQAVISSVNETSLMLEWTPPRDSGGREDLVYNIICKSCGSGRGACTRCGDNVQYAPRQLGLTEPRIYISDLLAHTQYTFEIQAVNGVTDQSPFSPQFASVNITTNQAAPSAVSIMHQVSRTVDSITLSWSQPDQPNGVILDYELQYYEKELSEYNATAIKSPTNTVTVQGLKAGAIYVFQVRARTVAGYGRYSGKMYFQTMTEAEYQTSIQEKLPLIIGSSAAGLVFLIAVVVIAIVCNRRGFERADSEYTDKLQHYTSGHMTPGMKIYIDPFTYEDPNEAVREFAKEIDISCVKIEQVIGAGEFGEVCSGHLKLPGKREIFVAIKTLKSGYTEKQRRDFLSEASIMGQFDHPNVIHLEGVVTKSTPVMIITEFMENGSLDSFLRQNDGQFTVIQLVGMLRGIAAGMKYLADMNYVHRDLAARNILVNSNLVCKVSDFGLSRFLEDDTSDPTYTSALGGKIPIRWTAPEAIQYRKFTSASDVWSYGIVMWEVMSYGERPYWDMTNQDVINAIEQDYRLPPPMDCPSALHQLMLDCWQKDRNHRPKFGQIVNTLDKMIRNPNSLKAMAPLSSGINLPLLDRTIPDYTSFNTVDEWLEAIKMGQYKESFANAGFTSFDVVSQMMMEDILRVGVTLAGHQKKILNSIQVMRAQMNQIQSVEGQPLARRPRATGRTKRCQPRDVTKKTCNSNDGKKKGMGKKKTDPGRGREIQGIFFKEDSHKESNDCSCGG

ephrin-B2-Fc (from UniProt P52799 28-229) (Fc fusion)
decrease in HeLa cell area (collapse) of Control shRNA EphB2-OE cells after 15 min with 1 ug/mL pre-clustered eB2 against Fc: 50%
